Reference: patent US20230052646A1 (JJP BIOLOGICS SP Z O O, published 2023)

Assays:
[1] = target: T1, membrane-bound full-length human HVEM on stable HVEM-transfected HEK293F cells (clone no. 128) (human, UniProt Q92956 39-283); assay: FACS, Ab 10 µg/mL then biotinylated BTLA on HVEM-HEK293F
T1 construct: The same cDNA was also expressed on Sf9 insect cells; also called TNFRSF14; CD270
T1 sequence: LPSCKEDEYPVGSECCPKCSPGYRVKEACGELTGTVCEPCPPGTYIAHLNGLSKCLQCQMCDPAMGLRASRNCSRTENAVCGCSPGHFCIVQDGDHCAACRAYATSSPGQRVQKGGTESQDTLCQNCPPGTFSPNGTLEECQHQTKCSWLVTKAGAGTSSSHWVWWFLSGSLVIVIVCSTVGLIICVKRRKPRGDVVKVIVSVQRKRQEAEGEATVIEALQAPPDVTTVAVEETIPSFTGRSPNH
Experimental: Generation of human ‘full-length’ HVEM-transfected HEK293F cells (clone no. 128) is described in Example 1a. Binding of soluble human BTLA, of soluble human CD160, of soluble human LIGHT, and of soluble human TNFβ on surface human HVEM-transfected cells was analysed by FACS analysis. To this end, stable human full-length HVEM-transfected HEK293F cells were put at 10×10⁶ cells/mL in ice-chilled phosphate-buffered saline containing 0.1% BSA (Sigma)/0.05% NaN₃ (PBS/BSA/NaN₃) supplemented with 50 μg/mL human IgGs (blocking possible Fcγ receptors; Sigma) for 10 minutes at 4° C. Then, 10 μL/tube (i.e., 0.1×10⁶ cells) of these cells were incubated with or without 100 μL purified chimeric mouse/human anti-HVEM antibody at 10 μg/mL/tube or a human IgG4/κ (Sigma) negative isotype control at 10 μg/mL/tube for 30 minutes at 4° C. After this (i.e., without washing), cells were subsequently incubated with 1 μg/mL soluble biotinylated human BTLA (Sino Biological Inc), with 10 μg/mL soluble his-tagged human CD160 (Sino Biological Inc), with 1 μg/mL soluble his-tagged human LIGHT (Sino Biological Inc), or with 0.1 μg/mL soluble biotinylated human TNFβ (Sino Biological Inc) in PBS/BSA/NaN₃ for 30 minutes at 4° C. After extensive washing in PBS/BSA/NaN₃, cells were incubated with 1:200 diluted PE-conjugated streptavidin (detection BTLA and TNFβ; Jackson ImmunoResearch) or with biotinylated mouse anti-his antibody (detection CD160 and LIGHT; R&D Systems) at 10 μg/mL for 30 minutes at 4° C. After extensive washing in PBS/BSA/NaN₃, cells were incubated with 1:200 diluted PE-conjugated streptavidin (detection CD160 and LIGHT; Jackson ImmunoResearch) for 30 minutes at 4° C. After extensive washing in PBS/BSA/NaN₃, cells were fixed in 4% formaldehyde in PBS/BSA/NaN₃ for 30 minutes at 4° C. Binding of ligands BTLA, CD160, LIGHT and TNFβ on membrane human HVEM was measured using a flow cytometer (model FACSCalibur; BD Biosciences). For comparison, purified BTLA/HVEM blocking mouse anti-human HVEM antibody counterparts no. 36H12, 45H6, 48H6, 11H7, and 49G4 at 10 μg/mL/tube and a mouse IgG1 (BD Biosciences) negative isotype control at 10 μg/mL/tube were run in parallel.

[2] = target: T2, membrane-bound 'CRD1 truncated' human HVEM on transiently transfected HEK293F cells (human, UniProt Q92956 76-283); assay: FACS, undiluted hybridoma supernatant, CRD1 truncated HVEM on HEK293F
T2 construct: aa 1-19 are a mouse Ig signal peptide and are left out; Starts with CRD2; also called human HVEM deleted for CRD1; CRD1 truncated HVEM
T2 sequence: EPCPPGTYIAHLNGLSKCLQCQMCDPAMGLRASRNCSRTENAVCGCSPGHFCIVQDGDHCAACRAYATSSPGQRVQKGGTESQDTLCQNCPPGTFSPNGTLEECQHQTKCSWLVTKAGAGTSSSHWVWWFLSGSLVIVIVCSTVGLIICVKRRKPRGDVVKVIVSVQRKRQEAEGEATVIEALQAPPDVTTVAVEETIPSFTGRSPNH
Experimental: Generation of human ‘full-length’ HVEM-transfected HEK293F cells (clone no. 128) is described in Example 1a. […] After 72 hours, surface human HVEM expression on transfected cells was analysed by FACS analysis. To this end, stable human full-length HVEM-transfected HEK293F cells and transient human ‘CRD1 truncated’ HVEM-transfected HEK293F cells were put at 10×10⁶ cells/mL in ice-chilled phosphate-buffered saline containing 0.1% BSA (Sigma)/0.05% NaN₃ (PBS/BSA/NaN₃) supplemented with 50 μg/mL human IgGs (blocking of possible Fcγ receptors; Sigma) for 10 minutes at 4° C. Then, 10 μL/tube (i.e., 0.1×10⁶ cells) of these cells were incubated with 100 μL undiluted hybridoma supernatant/tube for 30 minutes at 4° C. Phycoerythrin (PE)-conjugated mouse anti-human HVEM antibody (clone eBioHVEM-122; eBioscience) at 1:20 was run as a positive control antibody. After extensive washing in PBS/BSA/NaN₃, cells were subsequently incubated with 1:200 diluted PE-conjugated goat anti-mouse IgG Fcγ-specific antibodies (Jackson ImmunoResearch) for 30 minutes at 4° C. After extensive washing in PBS/BSA/NaN₃, cells were fixed in 2% formaldehyde in PBS/BSA/NaN₃ for 30 minutes at 4° C. Binding of antibodies was measured using a flow cytometer (model FACSCalibur; BD Biosciences).

% blocking of ligand binding [1]: > 95%
binding result [2]: no binding
B1: mouse anti-human HVEM antibody no. 36H12 (antibody, mouse IgG1, V domains shown)
VH: EVQLQQSGAGLVKPGASVKLSCTASGFNIKDTYMHWVRQRPEQGLEWIGRIDPATANTKYDPKFQGKATLTTDTSSNTAYLQLSSLTSEDTAVYYCVTYGYDVSWFAYWGLGALVTVSA
VL: DVLMTQTPLSLPVSLGDQASISCRSSQSIVHSNGITYLEWYLQKPGQSPKLLIYKVSNRFSGVPDRFSGSGSGTDFTLKISRVEAEDLGVYYCFQGSHVPLTFGAGTKLELK
notes: mouse IgG1/kappa; also called 36H12 (mouse)
